Laboratory results from patent US7229788.

Legend:
[1] = target: T1, SHEL (synthetic human elastin; recombinant human tropoelastin splice form)
T1 chain: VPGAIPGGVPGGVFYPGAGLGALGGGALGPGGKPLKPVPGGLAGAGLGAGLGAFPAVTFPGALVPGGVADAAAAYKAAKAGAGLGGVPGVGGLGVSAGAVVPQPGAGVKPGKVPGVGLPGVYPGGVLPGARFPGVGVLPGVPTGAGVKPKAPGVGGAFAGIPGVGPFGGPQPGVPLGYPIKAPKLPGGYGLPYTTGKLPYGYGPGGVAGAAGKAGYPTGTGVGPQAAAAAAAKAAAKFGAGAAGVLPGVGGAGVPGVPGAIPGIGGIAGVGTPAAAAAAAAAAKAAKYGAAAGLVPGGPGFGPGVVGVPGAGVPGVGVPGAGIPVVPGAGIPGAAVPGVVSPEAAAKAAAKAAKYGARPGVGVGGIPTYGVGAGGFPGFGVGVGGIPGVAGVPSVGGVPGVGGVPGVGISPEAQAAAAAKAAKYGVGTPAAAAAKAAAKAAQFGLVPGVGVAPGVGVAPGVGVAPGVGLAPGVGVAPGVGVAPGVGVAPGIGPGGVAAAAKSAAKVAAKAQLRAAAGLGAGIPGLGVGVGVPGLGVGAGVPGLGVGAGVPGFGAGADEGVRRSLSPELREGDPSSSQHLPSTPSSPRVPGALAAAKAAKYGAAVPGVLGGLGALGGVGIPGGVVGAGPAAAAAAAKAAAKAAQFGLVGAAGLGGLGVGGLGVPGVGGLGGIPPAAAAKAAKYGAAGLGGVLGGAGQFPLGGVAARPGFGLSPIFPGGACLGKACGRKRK

[2] = target: T2, SHELδ26A (SHEL lacking the sequence of exon 26A)
T2 chain: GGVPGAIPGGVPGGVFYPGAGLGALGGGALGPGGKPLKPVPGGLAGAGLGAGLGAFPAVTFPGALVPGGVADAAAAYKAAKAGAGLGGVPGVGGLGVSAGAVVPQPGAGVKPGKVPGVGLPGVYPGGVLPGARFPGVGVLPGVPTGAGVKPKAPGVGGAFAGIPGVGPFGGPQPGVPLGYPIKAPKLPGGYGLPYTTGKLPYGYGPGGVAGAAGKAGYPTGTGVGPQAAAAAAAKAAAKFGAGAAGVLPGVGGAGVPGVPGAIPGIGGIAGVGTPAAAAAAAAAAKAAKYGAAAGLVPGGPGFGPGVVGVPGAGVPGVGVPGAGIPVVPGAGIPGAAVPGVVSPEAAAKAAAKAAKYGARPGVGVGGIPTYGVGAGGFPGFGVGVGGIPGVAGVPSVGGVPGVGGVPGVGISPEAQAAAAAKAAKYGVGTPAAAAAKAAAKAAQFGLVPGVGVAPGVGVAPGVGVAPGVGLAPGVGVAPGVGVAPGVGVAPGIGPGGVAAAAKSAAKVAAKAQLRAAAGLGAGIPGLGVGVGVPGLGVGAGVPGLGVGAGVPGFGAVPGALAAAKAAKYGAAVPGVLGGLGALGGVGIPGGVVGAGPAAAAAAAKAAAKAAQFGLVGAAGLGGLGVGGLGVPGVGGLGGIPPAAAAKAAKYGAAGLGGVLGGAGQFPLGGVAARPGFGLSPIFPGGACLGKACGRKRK

[3] = target: T3, serine protease site peptide (SPS-peptide), N-…-C
T3 chain: KAQLRAAAGLGAGI

B1: Gelatinase A (72 kDa gelatinase) (protein)
chain: YNFFPRKPKWDKNQITYRIIGYTPDLDPETVDDAFARAFQVWSDVTPLRFSRIHDGEADIMINFGRWEHGDGYPFDGKDGLLAHAFAPGTGVGGDSHFDDDELWTLGEGQVVRVKYGNADGEYCKFPFLFNGKEYNSCTDTGRSDGFLWCSTTYNFEKDGKYGFCPHEALFTMGGNAEGQPCKFPFRFQGTSYDSCTTEGRTDGYRWCGTTEDYDRDKKYGFCPETAMSTVGGNSEGAPCVFPFTFLGNKYESCTSAGRSDGKMWCATTANYDDDRKWGFCPDQGYSLFLVAAHEFGHAMGLEHSQDPGALMAPIYTYTKNFRLSQDDIKGIQELYGASPDIDLGTGPTPTLGPVTPEICKQDIVFDGIAQIRGEIFFFKDRFIWRTVTPRDKPMGPLLVATFWPELPEKIDAVYEAPQEEKAVFFAGNEYWIYSASTLERGYPKPLTSLGLPPDVQRVDAAFNWSKNKKTYIFAGDKFWRYNEVKKKMDPGFPKLIADAWNAIPDNLDAVVDLQGGGHSYFFKGAYYLKLENQSLKSVKFGSIKSDWLGC
[1]
  digestion of SHEL by APMA-treated gelatinase A, SDS-PAGE: Digestion with gelatinase A and gelatinase B (each previously treated with APMA) of SHEL revealed SDS-PAGE patterns of preferentially digested fragments

B2: human leukocyte elastase (HLE) (Sigma) (protein)
chain: IVGGRRARPHAWPFMVSLQLRGGHFCGATLIAPNFVMSAAHCVANVNVRAVRVVLGAHNLSRREPTRQVFAVQRIFENGYDPVNLLNDIVILQLNGSATINANVQVAQLPAQGRRLGNGVQCLAMGWGLLGRNRGIASVLQELNVTVVTSLCRRSNVCTLVRGRQAGVCFGDSGSPLVCNGLIHGIASFVRGGCASGLYPDAFAPVAQFVNWIDSIIQ
[1]
  degradation of SHEL by human leukocyte elastase, SDS-PAGE: numerous fragments were seen with two prominent fragments at 32 and 18 kDa
[2]
  degradation of SHELδ26A by human leukocyte elastase, SDS-PAGE: SHELδ26A produced a similar profile but with a series of fragments appearing 4 kDa smaller
[3]
  amount of full-length SHEL after HLE digestion with SPS-peptide, SDS-PAGE and densitometry: SPS-peptide also resulted in more full-length SHEL using thrombin and HLE but to a lesser extent

B3: Gelatinase B (92 kDa gelatinase) (protein)
chain: MRTPRCGVPDLGRFQTFEGDLKWHHHNITYWIQNYSEDLPRAVIDDAFARAFALWSAVTPLTFTRVYSRDADIVIQFGVAEHGDGYPFDGKDGLLAHAFPPGPGIQGDAHFDDDELWSLGKGVVVPTRFGNADGAACHFPFIFEGRSYSACTTDGRSDGLPWCSTTANYDTDDRFGFCPSERLYTQDGNADGKPCQFPFIFQGQSYSACTTDGRSDGYRWCATTANYDRDKLFGFCPTRADSTVMGGNSAGELCVFPFTFLGKEYSTCTSEGRGDGRLWCATTSNFDSDKKWGFCPDQGYSLFLVAAHEFGHALGLDHSSVPEALMYPMYRFTEGPPLHKDDVNGIRHLYGPRPEPEPRPPTTTTPQPTAPPTVCPTGPPTVHPSERPTAGPTGPPSAGPTGPPTAGPSTATTVPLSPVDDACNVNIFDAIAEIGNQLYLFKDGKYWRFSEGRGSRPQGPFLIADKWPALPRKLDSVFEERLSKKLFFFSGRQVWVYTGASVLGPRRLDKLGLGADVAQVTGALRSGRGKMLLFSGRRLWRFDVKAQMVDPRSASEVDRMFPGVPLDTHDVFQYREKAYFCQDRFYWRVSSRSELNQVDQVGYVTYDILQCPED
[1]
  digestion of SHEL by APMA-treated gelatinase B, SDS-PAGE: Digestion with gelatinase A and gelatinase B (each previously treated with APMA) of SHEL revealed SDS-PAGE patterns of preferentially digested fragments

B4: human plasmin (Sigma) (protein)
chain: KVYLSECKTGNGKNYRGTMSKTKNGITCQKWSSTSPHRPRFSPATHPSEGLEENYCRNPDNDPQGPWCYTTDPEKRYDYCDILECEEECMHCSGENYDGKISKTMSGLECQAWDSQSPHAHGYIPSKFPNKNLKKNYCRNPDRELRPWCFTTDPNKRWELCDIPRCTTPPPSSGPTYQCLKGTGENYRGNVAVTVSGHTCQHWSAQTPHTHNRTPENFPCKNLDENYCRNPDGKRAPWCHTTNSQVRWEYCKIPSCDSSPVSTEQLAPTAPPELTPVVQDCYHGDGQSYRGTSSTTTTGKKCQSWSSMTPHRHQKTPENYPNAGLTMNYCRNPDADKGPWCFTTDPSVRWEYCNLKKCSGTEASVVAPPPVVLLPDVETPSEEDCMFGNGKGYRGKRATTVTGTPCQDWAAQEPHRHSIFTPETNPRAGLEKNYCRNPDGDVGGPWCYTTNPRKLYDYCDVPQCAAPSFDCGKPQVEPKKCPGRVVGGCVAHPHSWPWQVSLRTRFGMHFCGGTLISPEWVLTAAHCLEKSPRPSSYKVILGAHQEVNLEPHVQEIEVSRLFLEPTRKDIALLKLSSPAVITDKVIPACLPSPNYVVADRTECFITGWGETQGTFGAGLLKEAQLPVIENKVCNRYEFLNGRVQSTELCAGHLAGGTDSCQGDSGGPLVCFEKDKYILQGVTSWGLGCARPNKPGVYVRVSRFVTWIEGVMRNN
[1]
  degradation of SHEL by human plasmin, SDS-PAGE: Major bands could be isolated using low concentration plasmin at 55, 45, 40, 34, 28, 22 and 18 kDa
[3]
  amount of full-length SHEL after plasmin digestion with a 100:1 molar excess of SPS-peptide, SDS-PAGE and densitometry (also seen with SHELδ26A, not shown): more full-length SHEL was evident compared with controls using trypsin, plasmin, kallikrein and serum
